The text below walks through data of PMC3862839, “From Knock-Out Phenotype to Three-Dimensional Structure of a Promising Antibiotic Target from Streptococcus pneumoniae” (PLoS ONE, 2013).

Data set [1] concerns the target Ec-DHDPS (dimer) (Escherichia coli) (UniProt P0A6L2). Conditions: cited from earlier work.
Substrate in data set [2]: CC(=O)C(=O)O
Nature of the data set: purified protein. Conditions: co-substrate (S)-ASA 0-0.48 mM, 250 mM HEPES pH 8.0, 30 °C, 0.2 mM NADPH, 20 nM enzyme, global ping-pong fit without substrate inhibition.
Excerpt: (§1) DHDPS-DHDPR coupled assay, NADPH oxidation on Sp-DHDPS (dihydrodipicolinate synthase)

Substrate in data set [3]: N[C@@H](CC=O)C(=O)O
Nature of the data set: purified protein. The settings on record: co-substrate pyruvate 0.5-16 mM, 250 mM HEPES pH 8.0, 30 °C, 0.2 mM NADPH, 20 nM enzyme, global ping-pong fit without substrate inhibition.
Excerpt: as §1

Data set [4] deals with the molecule itself. Kind of data set: AUC; sedimentation velocity, 40,000 rpm, 20°C, 20 mM Tris-HCl pH 8.0, 150 mM NaCl; Sp-DHDPS at 4.5 µM and at 740 nM; c(s) and c(M) distributions (SEDFIT).
Data set [5] concerns the molecule itself. Kind of data set: AUC; sedimentation equilibrium, 10,000 and 18,000 rpm, 20°C, 20 mM Tris-HCl pH 8.0, 150 mM NaCl; 296, 355 and 740 nM Sp-DHDPS; global fit to a dimer-tetramer model (SEDPHAT); tetramer to dimers.

By Kd is commonly meant the equilibrium constant for the complex coming apart. For the molecule Ec-DHDPS (dimer) (from UniProt P0A6L2), the Kd in data set [1] was 76 nM.

B1: Streptococcus pneumoniae dihydrodipicolinate synthase (enzyme, UniProt Q97R25 1-311, looked up)
chain: MSYQDLKKCKIITAFITPFHEDGSINFDAIPALIEHLLAHHTDGILLAGTTAESPTLTHDEELELFAAVQKVVNGRVPLIAGVGTNDTRDSIEFVKEVAEFGGFAAGLAIVPYYNKPSQEGMYQHFKTIADASDLPIIIYNIPGRVVVELTPETMLRLADHPNIIGVKECTSLANMAYLIEHKPEEFLIYTGEDGDAFHAMNLGADGVISVASHTNGDEMHEMFTAIAESDMKKAAAIQRKFIPKVNALFSYPSPAPVKAILNYMGFEAGPTRLPLVPAPEEDAKRIIKVVVDGDYEATKATVTGVLRPDY
notes: Dihydrodipicolinate synthase (DHDPS, product of dapA) of Streptococcus pneumoniae; Homotetramer (dimer of 'tight' dimers) in solution and in the crystal; also called Sp-DHDPS; sp-DHDPS
The term Km denotes the concentration of substrate that gives half-maximal velocity. Usually kcat stands for the maximal rate divided by the concentration of active sites. Broadly, the stoichiometry N is a count of units in the complex or per binding partner. For B1, in “purified protein [2]”, the Michaelis constant (Km) worked out at 2550 ± 50 µM and the kcat stood at 22 s⁻¹. For the same molecule, in “purified protein [3]”, the Michaelis-Menten constant (Km) was 44 ± 3 µM and the kcat came to 22 s⁻¹. In data set [4], the “stoichiometry N” value worked out at 4. The Kd in data set [5] was determined as 1.7 nM.
